Measurements as given in article PMC9751095.

Target: Myc-TRAP1 (human) (UniProt Q12931)
Assay: SPR; printed as "Ka 26 µM"
Conditions: enzyme; chains chain; remark: other sources report otherwise

Sequence of purified recombinant human cyclophilin D, P30405 30-207 (P30405 30-207): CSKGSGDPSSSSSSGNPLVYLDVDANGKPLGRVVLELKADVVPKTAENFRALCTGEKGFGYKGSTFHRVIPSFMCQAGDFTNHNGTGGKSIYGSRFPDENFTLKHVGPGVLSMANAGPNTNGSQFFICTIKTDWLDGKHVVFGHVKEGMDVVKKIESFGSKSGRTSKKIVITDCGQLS
Sequence of Myc-TRAP1 (human) (Q12931 60-704): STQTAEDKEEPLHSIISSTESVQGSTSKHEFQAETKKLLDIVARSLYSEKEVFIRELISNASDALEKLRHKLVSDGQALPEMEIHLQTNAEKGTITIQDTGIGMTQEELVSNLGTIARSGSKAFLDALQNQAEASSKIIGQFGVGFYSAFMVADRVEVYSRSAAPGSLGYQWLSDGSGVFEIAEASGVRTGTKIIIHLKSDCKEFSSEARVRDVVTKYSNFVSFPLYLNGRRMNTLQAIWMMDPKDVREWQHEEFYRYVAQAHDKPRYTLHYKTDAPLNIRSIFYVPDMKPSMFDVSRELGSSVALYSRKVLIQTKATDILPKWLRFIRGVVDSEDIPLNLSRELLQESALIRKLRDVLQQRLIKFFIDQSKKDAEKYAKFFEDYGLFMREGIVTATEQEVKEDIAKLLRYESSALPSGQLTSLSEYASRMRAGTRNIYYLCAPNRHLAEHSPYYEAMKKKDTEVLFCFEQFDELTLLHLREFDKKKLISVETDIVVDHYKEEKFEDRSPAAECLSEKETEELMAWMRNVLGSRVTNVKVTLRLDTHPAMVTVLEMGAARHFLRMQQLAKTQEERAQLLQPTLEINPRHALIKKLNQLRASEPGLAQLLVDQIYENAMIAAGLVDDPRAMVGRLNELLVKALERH

Substance: purified recombinant human cyclophilin D, P30405 30-207
- Kd: 26 µM
